# B1: antibody-38: anti-human CD3ε chain and anti-human GPC3 bispecific antibody; H chains SEQ ID NO: 385 and 402, common L chains SEQ ID NO: 410 (antibody)
# heavy 1: QVQLVQSGAEVKKPGASVTVSCKASGYTFTDYEMHWIRQPPGEGLEWIGAIDGPTPDTAYSEKFKGRVTLTADKSTSTAYMELSSLTSEDTAVYYCTRFYSYTYWGQGTLVTVSSASTKGPSVFPLAPCSRSTSESTAALGCLVKDYFPEPVTVSWNSGALTSGVHTFPAVLQSSGLYSLSSVVTVPSSSLGTQTYTCNVDHKPSNTKVDKRVESKYGPPCPPCPAPEFRGGPKVFLFPPKPKDTLMISRTPEVTCVVVDVSQEDPEVQFNWYVDGVEVHNAKTKPREEQFASTYRVVSVLTVLHQDWLNGKEYKCKVSNKGLPSSIEKTISKAKGQPREPQVYTLPPSQEEMTKNQVSLTCLVKGFYPSDIAVEWESNGQPENNYKTTPPVLDSDGSFFLYSKLTVDKSRWQEGNVFSCSVMHEALHNHYTQESLSLSP
# heavy 2: QVQLVESGGGVVQPGGSLRLSCAASGFTFSNAWMHWVRQAPGKGLEWVAQIKDKSQNYATYVAESVKGRFTISRADSKNSIYLQMNSLKTEDTAVYYCRYVHYAAGYGVDIWGQGTTVTVSSASTKGPSVFPLAPCSRSTSESTAALGCLVKDYFPEPVTVSWNSGALTSGVHTFPAVLQSSGLYSLSSVVTVPSSSLGTKTYTCNVDHKPSNTKVDKRVESKYGPPCPPCPAPEFRGGPKVFLFPPKPKDTLMISRTPEVTCVVVDVSQEDPEVQFNWYVDGVEVHNAKTKPREEQFASTYRVVSVLTVLHQDWLNGKEYKCKVSNKGLPSSIEKTISKAKGQPREPQVYTLPPSQKEMTKNQVSLTCLVKGFYPSDIAVEWESNGQPENNYKTTPPVLDSDGSFFLYSKLTVDKSRWQEGNVFSCSVMHEALHNHYTQKSLSLSP
# light: DIVMTQSPLSLPVTPGEPASISCRSSQPLVHSNRNTYLHWYQQKPGQAPRLLIYKVSNRFSGVPDRFSGSGSGTDFTLKISRVEAEDVGVYYCGQGTQVPYTFGQGTKLEIKRTVAAPSVFIFPPSDEQLKSGTASVVCLLNNFYPREAKVQWKVDNALQSGNSQESVTEQDSKDSTYSLSSTLTLSKADYEKHKVYACEVTHQGLSSPVTKSFNRGEC
# modifications: An artificially generated sequence
# How the values were obtained:
# [1] = tested on: PC-10 xenograft tumor; test: In vivo drug efficacy, humanized NOG mouse model; set-up: species or system humanized NOG mice; details: 0.008, 0.04, 0.2, or 1 mg/kg once through the tail vein, compared to the vehicle-administered group
# Protocol: Methods called an NOD scid/T cell-injected model, a humanized NOG mouse model, and a human CD3εδγ gene-modified mouse model were used in the in vivo drug efficacy evaluation. Assay using an NOD scid/T cell-injected model was performed as follows. […] T cells expanded by culturing human PBMCs in vitro were injected into the NOD scid mice with confirmed tumor establishment. The mice were treated by administering bispecific antibody-38 and bispecific antibody-30, -31, -32, or -33. Assay using a humanized NOG mouse model was performed as follows. CD34-positive hematopoietic stem cells derived from umbilical cord blood were transplanted into NOG mice by tail vein injection. Human T cells are constantly supplied in the mice, which are called humanized NOG mice. The PC-10 cell line was transplanted into humanized NOG mice. The humanized NOG mice with confirmed establishment of PC-10 tumor were treated by administering antibody-38. Assay using a human CD3εδγ gene-modified mouse model was performed as follows. Cells of mouse-derived cell line forced to express human GPC3 were transplanted into a human CD3εδγ gene-modified mouse model, which had been prepared according to Reference Example 10. The human CD3εδγ gene-modified mice with confirmed tumor establishment were treated by administering antibody-38. […]
# [2] = tested on: NCI-H446 tumor tissues; test: Histopathological evaluation of HE-stained tumor tissues; type: in vivo, humanized NOG mice
# Protocol: (§1) The tumor samples were prepared as follows. The tumor samples when antibody-38 was used in combination with a chemotherapeutic agent in the humanized NOG mouse model were prepared by the procedure described below. 2.5 Gy of X ray was irradiated to NOG mice (In-Vivo Science Inc., Y). On the following day, 1×10^5 CD34-positive hematopoietic stem cells which are derived from umbilical cord blood were transplanted into the NOG mice by tail vein injection. After 16 to 20 weeks, each of human cancer cell lines (MKN45 and NCI-H446) was mixed with Matrigel™ Basement Membrane Matrix, and transplanted subcutaneously into the humanized NOG mice. The day of transplantation was defined as Day 0.
# (§2) When tumor was established, the mice were separated into groups based on tumor size and body weight. Antibody-38 and the pharmaceutical agents for use in combination were administered according to the dose and dosing regimen described in Table 21. The mice were euthanized at the timing described in Table 21, and tumor was excised and preserved for use in tumor infiltrating lymphocyte (TIL) analysis, pathological analysis, or RNA analysis.
# With respect to histological analysis of tumor tissues, tumor samples from mice six days after administration of antibody-38 and paclitaxel were fixed in 10% formaldehyde neutral buffer solution. […]
# [3] = tested on: MKN45 and NCI-H446 tumor tissues; test: Comprehensive RNA analysis of tumor tissues using nCounter; type: in vivo, humanized NOG mice; details: in combination with paclitaxel or capecitabine; compared to antibody-38 or the chemotherapeutic agent alone
# Protocol: RNA was extracted from tumor samples after administration of paclitaxel, cisplatin, or capecitabine and antibody-38. Comprehensive RNA analysis using nCounter, tumor infiltrating lymphocyte (TIL) analysis, and pathological analysis were performed as follows.
# as §1
# When tumor was established, the mice were separated into groups based on tumor size and body weight. Antibody-38 and the pharmaceutical agents for use in combination were administered according to the dose and dosing regimen described in Table 21. […]
# RNA analysis was performed as follows. RNA was extracted (miRNeasy Mini Kit, QIAGEN) from the above-described tumor samples and the RNA concentrations were determined (NanoDrop, Thermo Fisher Scientific). […]
# [4] = tested on: NCI-H446 tumor tissues; test: Tumor infiltrating lymphocyte (TIL) analysis of tumor tissues; type: in vivo, humanized NOG mice; details: in combination with a chemotherapeutic agent, paclitaxel or capecitabine; sixth day after antibody-38 administration; compared to either alone
# Protocol: as §1, §2
# TIL analysis was performed as follows. Tumor tissues which were dissected from mice transplanted with NCI-H446 described in Table 21 on the sixth day after antibody-38 administration were dissociated into cells by enzyme treatment using gentle MACS™ Octo Dissociator. […]
molecule,measurement,setting,value
B1,anti-tumor effect,[1],"evident, dose-dependent anti-tumor effect"
same,immune cell infiltration,"[2]; antibody 38 administered, six days after administration",observed around the tumor periphery
same,immune cell infiltration area,[2]; antibody-38 in combination with paclitaxel,expanded
same,expressions of genes involved in the progress of cell cycle,[3],suppressed
same,"expressions of immune cell markers, chemokines, cytokines, genes involved in cell death, genes involved in cell cycle regulation",[3],increased
same,"cell populations expressing T cell markers, activated T cell markers, and proteins involved in cytotoxic activity",[4],increased
